According to article PMC11249646, “Small-Molecule Disruptors of the Interaction between Calcium- and Integrin-Binding Protein 1 and Integrin αIIbβ3 as Novel Antiplatelet Agents” (ACS Pharmacology & Translational Science, 2024):
“And” between values parts separate entries of the source, which are not always exact repeats. Identical values can stand only once. Like-named read-outs stand apart in the source and are kept apart here. Primed or numbered codes have the meaning given here. Where no end group is shown, it is not given here. FITC″ = fluorescein isothiocyanate label; FITC′ = not defined here

B1: unlabeled αIIb peptide (peptide)
peptide: Ac-LVLAMWKVGFFKRNRK
notes: integrin αIIb, stretch at the start of the cytoplasmic domain; last printed residue of the peptide; also called unlabeled peptide; source: synthetic peptide (custom synthesized, Peptide 2.0, purity >95.00%)
B2: FITC-labeled αIIb peptide from the cytoplasmic domain of integrin αIIb (peptide)
peptide: Ac-LVLAMWKVGFFKRNRK-{FITC′}
notes: integrin αIIb, stretch at the start of the cytoplasmic domain; last printed residue of the peptide; The C-terminal K probably carries the FITC (surmised); also called F-αIIb; F-αIIb peptide; source: synthetic peptide (custom synthesized, Peptide 2.0, purity 95.83%)
B3: GST-tagged recombinant CIB1 (calcium- and integrin-binding protein 1) (natural protein)
chain: SKELLAEYQDLTFLTKQEILLAHRRFCELLPQEQRSVESSLRAQVPFEQILSLPELKANPFKERICRVFSTSPAKDSLSFEDFLDLLSVFSDTATPDIKSHYAFRIFDFDDDGTLNREDLSRLVNCLTGEGEDTRLSASEMKQLIDNILEESDIDRDGTINLSEFQHVISRSPDFASSFKIVL
notes: Printed molecular weight of GST-CIB1 is 48 kDa against 26 kDa for GST alone, which would fit whole CIB1 (surmised); Vector family pGEX-4T is named for the empty vector; also called GST-CIB1; CIB1-GST

Legend:
[1] = target: T1, CIB1 and αIIb interaction (GST-CIB1 : F-αIIb peptide) (Homo sapiens, UniProt Q99828); assay: FP assay, 384-well format (screen); type: binding; settings: 384-well; F-αIIb 50 nM, GST-CIB1 1 or 2 μM; RT 1 h; read-out: IC50
T1 construct: made in house; host or cells: BL-21 plus RIL cells (E. coli)
T1 sequence (Q99828 1-191): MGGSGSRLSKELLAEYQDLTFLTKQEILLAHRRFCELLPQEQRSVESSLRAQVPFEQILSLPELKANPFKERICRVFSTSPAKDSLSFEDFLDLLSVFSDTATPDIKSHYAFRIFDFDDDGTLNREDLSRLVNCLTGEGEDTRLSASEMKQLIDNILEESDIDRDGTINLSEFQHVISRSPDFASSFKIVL

[2] = target: T1, CIB1 and αIIb interaction (GST-CIB1 : F-αIIb peptide); assay: FP assay, 96-well format (assay development); type: binding; settings: GST-CIB1 1 μM, F-αIIb peptide 100 nM, pre-incubated 1 h, read-out: half maximal inhibitory concentration (IC50)
[3] = target: B3; assay: fluorescence polarisation; competition, 384-well plate; GST-CIB1 1 or 2 μM, F-αIIb 50 nM, unlabeled αIIb peptide 16-point 1:2 dilution (3.05 nM to 100 μM), points >25 μM excluded; room temperature, 1 h; settings: both partners purified
[4] = target: B3; settings: both partners purified
[5] = target: T2, CIB1-(His)6 protein (UniProt Q99828 9-191); assay: MST; 200 nM F-αIIb with CIB1-(His)6 titrated 15 nM to 500 μM (16 points); about 1 h; medium (40%) MST power, Monolith NT.115; settings: both partners purified
T2 construct: source: purified using a Ni-NTA resin column
T2 sequence: B3 chain

[6] = target: T3, F-scrambled αIIb-peptide (FITC-labeled scrambled control peptide); settings: both partners purified
T3 construct: scrambled order of the αIIb peptide's residues; also called labeled scrambled-peptide; scrambled peptide; source: synthetic peptide (custom synthesized, Peptide 2.0, purity 95.37%)
T3 peptide: Ac-RKLFVKVMFWRLNGAK-{FITC″}

[7] = target: B2; settings: both partners purified

Molecule: Ac-LVLAMWKVGFFKRNRK [unlabeled αIIb peptide, reference compound]
- IC50 [1]: ~2700 nM and ~3000 nM
- IC50 [2]: 11200 nM

Molecule: B1
- IC50 [3]: ~2700 nM
- IC50 [4]: ~12000 nM and 8600 nM

Molecule: B2
- Kd [5]: 2600 nM

Molecule: B3
- EC50 [6]: 1600 nM
- EC50 [7]: ~200 nM
